According to patent publication US20150024453A1, “INTEGRATED PROCESS FOR DUAL BIOCATALYTIC CONVERSION OF CO2 GAS INTO BIO-PRODUCTS BY ENZYME ENHANCED HYDRATION AND BIOLOGICAL CULTURE” (CO2 SOLUTIONS INC., priority 2012, published 2015):

Experiment: Tests of carbonic anhydrase activity in carbonate absorption solutions
Assay type: biochemical
From the text: The absorption solution that is fed to the enzymatic bicarbonate production unit may be a sodium carbonate solution having a sodium carbonate concentration between about 0.3M and about 2.4M (temperature being between about 30 t for a concentration of about 2.5M) or a potassium carbonate solution having a potassium carbonate concentration between about 1M and about 2M. Tests have confirmed that carbonic anhydrase has good activity in sodium carbonate between 0.3M and 0.5M and in potassium carbonate at 1.45M. Halophile-type carbonic anhydrase, with elevated resistance to salt, may be used for higher concentrations. As opposed to carbonates, bicarbonates are less soluble (two times less approximately) and, therefore, if precipitation occurs, it would be of bicarbonate salts rather than carbonate salts. Cooling the ion loaded solution exiting the enzymatic CO2 capture unit may also encourage precipitation, as the solubility of bicarbonates and carbonates would be lowered. For sodium bicarbonate, temperature may be carefully adjusted since below about 30° C., a solution at 2.5M would not be soluble. The following Solubility Table may be used to set, adjust or control the carbonate or bicarbonate concentration as well as temperature in the enzymatic bicarbonate production and CO2 capture unit: […]

carbonic anhydrase
enzyme activity (in potassium carbonate at 1.45M): good activity
enzyme activity (in sodium carbonate between 0.3M and 0.5M): good activity
